Results taken from publication PMC3302164 (Science Signaling, 2010).

Molecular target: HA-PP2cA, expressed in HEK 293 cells (UniProt P67775 1-309)
Test: co-IP

HA-PP2cA, expressed in HEK 293 cells, sequence (P67775 whole entry): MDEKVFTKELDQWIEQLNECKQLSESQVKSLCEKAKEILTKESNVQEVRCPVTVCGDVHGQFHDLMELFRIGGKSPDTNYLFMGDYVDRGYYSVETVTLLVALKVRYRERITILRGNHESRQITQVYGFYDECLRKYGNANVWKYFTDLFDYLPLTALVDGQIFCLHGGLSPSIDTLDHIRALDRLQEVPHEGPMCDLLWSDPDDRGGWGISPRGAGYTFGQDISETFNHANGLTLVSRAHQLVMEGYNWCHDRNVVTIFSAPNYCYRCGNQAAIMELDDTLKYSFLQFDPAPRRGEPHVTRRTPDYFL

extent of interaction relative to that with PP1α, after doxorubicin: ~53%
B1: FLAG-KAP1 (wild type), expressed in HEK 293 cells (natural protein, human, UniProt Q13263 1-835, looked up)
chain: MAASAAAASAAAASAASGSPGPGEGSAGGEKRSTAPSAAASASASAAASSPAGGGAEALELLEHCGVCRERLRPEREPRLLPCLHSACSACLGPAAPAAANSSGDGGAAGDGTVVDCPVCKQQCFSKDIVENYFMRDSGSKAATDAQDANQCCTSCEDNAPATSYCVECSEPLCETCVEAHQRVKYTKDHTVRSTGPAKSRDGERTVYCNVHKHEPLVLFCESCDTLTCRDCQLNAHKDHQYQFLEDAVRNQRKLLASLVKRLGDKHATLQKSTKEVRSSIRQVSDVQKRVQVDVKMAILQIMKELNKRGRVLVNDAQKVTEGQQERLERQHWTMTKIQKHQEHILRFASWALESDNNTALLLSKKLIYFQLHRALKMIVDPVEPHGEMKFQWDLNAWTKSAEAFGKIVAERPGTNSTGPAPMAPPRAPGPLSKQGSGSSQPMEVQEGYGFGSGDDPYSSAEPHVSGVKRSRSGEGEVSGLMRKVPRVSLERLDLDLTADSQPPVFKVFPGSTTEDYNLIVIERGAAAAATGQPGTAPAGTPGAPPLAGMAIVKEEETEAAIGAPPTATEGPETKPVLMALAEGPGAEGPRLASPSGSTSSGLEVVAPEGTSAPGGGPGTLDDSATICRVCQKPGDLVMCNQCEFCFHLDCHLPALQDVPGEEWSCSLCHVLPDLKEEDGSLSLDGADSTGVVAKLSPANQRKCERVLLALFCHEPCRPLHQLATDSTFSLDQPGGTLDLTLIRARLQEKLSPPYSSPQEFAQDVGRMFKQFNKLTEDKADVQSIIGLQRFFETRMNEAFGDTKFSAVLVEPPPMSLPGAGLSSQELSGGPGDGP
